Columns and labels:
Experiment in all cases: IEDB peptide-MHC binding, purified MHC/competitive/radioactivity; ≥ and ≤ were set here for values at or beyond the usual limits of such assays
HLA-A*02:02 = biological target: HLA-A*02:02
HLA-A*02:01 = biological target: HLA-A*02:01
HLA-A*68:02 = biological target: HLA-A*68:02
HLA-A*02:03 = biological target: HLA-A*02:03
HLA-A*02:06 = biological target: HLA-A*02:06
[1] = source organism: Hepacivirus hominis
[2] = source organism: Vaccinia virus WR
[3] = source organism: Mammarenavirus choriomeningitidis
[4] = source organism: Mammarenavirus machupoense
[5] = source organism: Influenza A virus

Sequence	IC50 (HLA-A*02:02; [2]) [nM]	IC50 (HLA-A*02:01; [2]) [nM]	IC50 (HLA-A*68:02; [2]) [nM]	IC50 (HLA-A*02:03; [2]) [nM]	IC50 (HLA-A*02:06; [2]) [nM]	other results
MLVCGDDLVV						IC50 (HLA-A*02:02; [1]): 45 nM; IC50 (HLA-A*02:01; [1]): 97 nM; IC50 (HLA-A*68:02; [1]): 3060 nM; IC50 (HLA-A*02:03; [1]): 102 nM; IC50 (HLA-A*02:06; [1]): 157 nM
NIGCAVNTPV	126	23	11	30	176	
YLYTEYFLFL	0.085	0.069	76	0.56	0.007	
RMVSLVTSFL						IC50 (HLA-A*02:02; source organism: SARS-CoV1): 1.7 nM; IC50 (HLA-A*02:01; source organism: SARS-CoV1): 108 nM; IC50 (HLA-A*68:02; source organism: SARS-CoV1): 6.3 nM; IC50 (HLA-A*02:03; source organism: SARS-CoV1): 12 nM; IC50 (HLA-A*02:06; source organism: SARS-CoV1): 53 nM
KIILFLTLI						IC50 (HLA-A*02:02; source organism: SARS-CoV1): 68 nM; IC50 (HLA-A*02:01; source organism: SARS-CoV1): 141 nM; IC50 (HLA-A*68:02; source organism: SARS-CoV1): 378 nM; IC50 (HLA-A*02:03; source organism: SARS-CoV1): 4.9 nM; IC50 (HLA-A*02:06; source organism: SARS-CoV1): 24 nM
IALALEQYGI	980	3020	2900	4920	1130	
ITYCLVTHM	1280	3100	1730	2330	1410	
KVIKLVKSL	578	395	366	43	260	
ALVSDCASTI	94	72	530	52	240	
AVITETIPI	324	467	60	43	6.5	
NTTTFITVLT	1960	559	34	596	600	
YVGDTSMMVI	408	803	72	220	324	
RIYCSLFKNV	913	62	549	30	7.1	
NLETYTRPEI	539	1220	2080	1500	636	
VLWAHGFEL						IC50 (HLA-A*02:02; source organism: SARS-CoV1): 2.4 nM; IC50 (HLA-A*02:01; source organism: SARS-CoV1): 0.4 nM; IC50 (HLA-A*68:02; source organism: SARS-CoV1): 3890 nM; IC50 (HLA-A*02:03; source organism: SARS-CoV1): 34 nM; IC50 (HLA-A*02:06; source organism: SARS-CoV1): 20 nM
RLPSETFPNV	173	0.11	91	14	0.58	
ALAEHISDSI	0.2	8.7	272	0.34	163	
FLIVAALVFL						IC50 (HLA-A*02:02; source organism: SARS-CoV1): 3 nM; IC50 (HLA-A*02:01; source organism: SARS-CoV1): 11 nM; IC50 (HLA-A*68:02; source organism: SARS-CoV1): 1090 nM; IC50 (HLA-A*02:03; source organism: SARS-CoV1): 162 nM; IC50 (HLA-A*02:06; source organism: SARS-CoV1): 3.6 nM
ILISLINSLV	23	83	141	3.1	151	
QIFNIISYII	288	355	332	206	743	
DVLPFDIKYI	1200	183	361	188	1110	
LLPLTSLVIT	999	1170	1490	1320	1610	
NTIDKSSPL	82	972	5.7	27	19	
IMTSTRTIIL	1020	540	91	52	438	
TAYIGTSNWT	1760	4150	555	1050	220	
TICLKNEGV	494	547	5.8	120	311	
FSTSAYLISI						IC50 (HLA-A*02:02; [3]): 0.68 nM; IC50 (HLA-A*02:01; [3]): 9 nM; IC50 (HLA-A*68:02; [3]): 1.4 nM; IC50 (HLA-A*02:03; [3]): 14 nM; IC50 (HLA-A*02:06; [3]): 3.5 nM

Sequence	IC50 (HLA-A*02:02; [2]) [nM]	IC50 (HLA-A*02:01; [2]) [nM]	IC50 (HLA-A*68:02; [2]) [nM]	IC50 (HLA-A*02:03; [2]) [nM]	IC50 (HLA-A*02:06; [2]) [nM]	other results
TIAVSVYGA	25	104	32	9.9	99	
NASKFVYVSV	4550	1010	101	8.6	823	
IASSMKGENV	751	727	867	3240	311	
QIMECSRML	620	103	1400	1380	948	
LIDFYLCFL						IC50 (HLA-A*02:02; source organism: SARS-CoV1): 8.3 nM; IC50 (HLA-A*02:01; source organism: SARS-CoV1): 0.9 nM; IC50 (HLA-A*68:02; source organism: SARS-CoV1): 93 nM; IC50 (HLA-A*02:03; source organism: SARS-CoV1): 61 nM; IC50 (HLA-A*02:06; source organism: SARS-CoV1): 11 nM
DVERLQMAGV	215	683	363	104	776	
SVKNLILNFL	1040	2210	130	163	551	
KTANNYETI	37	2240	1320	38	329	
FVLALYSPPL	2.2	979	263	38	212	
PLISILMIFI	433	836	915	769	2420	
FIISTLNKI	1.6	6.1	1500	0.42	5.8	
IMSIGFEARI	703	1590	61	1500	1600	
FLPQIGGEA	21	1360	149	121	96	
NTCKPTILAT	460	4410	1640	248	3920	
YTLLGCWSFV						IC50 (HLA-A*02:02; [1]): 555 nM; IC50 (HLA-A*02:01; [1]): 435 nM; IC50 (HLA-A*68:02; [1]): 182 nM; IC50 (HLA-A*02:03; [1]): 169 nM; IC50 (HLA-A*02:06; [1]): 146 nM
DVFRPLFDFV	1020	1650	180	2570	232	
KSFFWFNEV						IC50 (HLA-A*02:02; [4]): 62 nM; IC50 (HLA-A*02:01; [4]): 6.5 nM; IC50 (HLA-A*68:02; [4]): 84 nM; IC50 (HLA-A*02:03; [4]): 265 nM; IC50 (HLA-A*02:06; [4]): 3.2 nM
IISSKQYPA	164	410	3580	612	1160	
SISSVLTIL	1.2	26	16	4	110	
IIPFIAYFVL	715	991	76	4730	852	
RTMPNESRV	140	1510	14	100	155	
YIFFASFYYI						IC50 (HLA-A*02:02; source organism: SARS-CoV1): 0.46 nM; IC50 (HLA-A*02:01; source organism: SARS-CoV1): 15 nM; IC50 (HLA-A*68:02; source organism: SARS-CoV1): 2.2 nM; IC50 (HLA-A*02:03; source organism: SARS-CoV1): 60 nM; IC50 (HLA-A*02:06; source organism: SARS-CoV1): 0.8 nM
SSLENFRAYV						IC50 (HLA-A*02:02; [5]): 204 nM; IC50 (HLA-A*02:01; [5]): 172 nM; IC50 (HLA-A*68:02; [5]): 24 nM; IC50 (HLA-A*02:03; [5]): 1140 nM; IC50 (HLA-A*02:06; [5]): 44 nM
ETLPELNLSL	52	1100	648	130	134	
YIILFILFFA	263	234	270	674	1050	
AAITLVVISV	501	369	715	246	27	
